Measured values reported in publication PMC9482650, “Quantitative fragmentomics allow affinity mapping of interactomes” (Nature Communications, 2022).

Tests used:
Assay in all cases: holdup assay
Design in all cases: key: below the threshold = too weak to quantify, mostly under pKd 3.1 to 4
[1] = biological target: DLG4_3, P78352
[2] = biological target: GOPC, Q9HD26
[3] = biological target: MAGI2_6, Q86UL8
[4] = biological target: SCRIB_2, Q14160
[5] = biological target: T1, LIN7C, Q9NUP9
T1 sequence (Q9NUP9 88-185, limits assumed, looked up): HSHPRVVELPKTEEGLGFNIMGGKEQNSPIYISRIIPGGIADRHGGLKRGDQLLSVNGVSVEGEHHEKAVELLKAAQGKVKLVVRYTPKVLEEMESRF

[6] = biological target: MAGI2_4, Q86UL8
MAGI2_4, Q86UL8, sequence (Q86UL8 772-865): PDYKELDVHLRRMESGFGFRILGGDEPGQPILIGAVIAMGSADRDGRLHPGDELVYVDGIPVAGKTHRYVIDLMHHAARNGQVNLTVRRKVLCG

[7] = biological target: FRMPD2_2, Q68DX3
FRMPD2_2, Q68DX3, sequence (Q68DX3 944-1038): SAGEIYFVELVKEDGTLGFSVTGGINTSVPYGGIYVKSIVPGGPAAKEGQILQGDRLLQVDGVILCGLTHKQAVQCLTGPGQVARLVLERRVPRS

[8] = biological target: NOS1, P29475
NOS1, P29475, sequence (P29475 9-101): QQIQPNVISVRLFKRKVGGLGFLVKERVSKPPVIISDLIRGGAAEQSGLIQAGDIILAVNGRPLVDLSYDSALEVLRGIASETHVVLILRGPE

[9] = biological target: T2, APBA2_1, Q99767
T2 sequence (Q99767 563-664, limits assumed, looked up): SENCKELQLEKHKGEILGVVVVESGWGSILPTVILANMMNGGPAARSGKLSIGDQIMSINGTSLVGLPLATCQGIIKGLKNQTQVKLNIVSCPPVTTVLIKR

[10] = biological target: CASK, O14936
CASK, O14936, sequence (O14936 487-570): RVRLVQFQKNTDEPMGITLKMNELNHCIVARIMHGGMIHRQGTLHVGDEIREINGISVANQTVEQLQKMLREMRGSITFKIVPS

[11] = biological target: T3, DVL3, Q92997
T3 sequence (Q92997 244-331, limits assumed, looked up): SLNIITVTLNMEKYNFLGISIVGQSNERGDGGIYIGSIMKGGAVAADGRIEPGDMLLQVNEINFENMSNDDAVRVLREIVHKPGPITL

[12] = biological target: GORASP1, Q9BQQ3
GORASP1, Q9BQQ3, sequence (Q9BQQ3 1-208): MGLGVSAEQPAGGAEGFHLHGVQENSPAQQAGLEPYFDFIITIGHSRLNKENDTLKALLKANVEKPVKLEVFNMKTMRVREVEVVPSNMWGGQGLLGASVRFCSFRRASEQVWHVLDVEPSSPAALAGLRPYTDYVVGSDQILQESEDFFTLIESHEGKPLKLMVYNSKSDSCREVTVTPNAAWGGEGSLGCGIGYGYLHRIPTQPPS

[13] = biological target: LAP2, Q96RT1
LAP2, Q96RT1, sequence (Q96RT1 other isoform, or with tags, fused parts or gaps): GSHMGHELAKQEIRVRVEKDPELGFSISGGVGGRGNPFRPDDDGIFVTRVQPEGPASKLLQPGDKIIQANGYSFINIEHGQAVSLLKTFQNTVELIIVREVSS

[14] = biological target: T4, DLG3_3, Q92796
T4 sequence (Q92796 374-475, limits assumed, looked up): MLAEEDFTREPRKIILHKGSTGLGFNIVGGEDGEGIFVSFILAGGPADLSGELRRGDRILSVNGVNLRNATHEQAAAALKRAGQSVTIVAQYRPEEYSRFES

[15] = biological target: T5, PDZD7_3, Q9H5P4
T5 sequence (Q9H5P4 857-944, limits assumed, looked up): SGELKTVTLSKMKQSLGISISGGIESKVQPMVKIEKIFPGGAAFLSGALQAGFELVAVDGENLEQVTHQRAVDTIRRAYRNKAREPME

[16] = biological target: LNX1_3, Q8TBB1
LNX1_3, Q8TBB1, sequence (Q8TBB1 500-596): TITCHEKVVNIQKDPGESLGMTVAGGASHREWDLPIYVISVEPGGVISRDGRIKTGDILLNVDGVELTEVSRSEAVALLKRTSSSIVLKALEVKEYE

[17] = biological target: Inadl_1, Q8NI35
Inadl_1, Q8NI35, sequence (Q8NI35 113-229): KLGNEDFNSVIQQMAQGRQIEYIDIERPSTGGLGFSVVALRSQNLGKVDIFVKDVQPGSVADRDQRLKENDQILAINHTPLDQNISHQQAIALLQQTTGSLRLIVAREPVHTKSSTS

[18] = biological target: DLG1_3, Q12959
DLG1_3, Q12959, sequence (Q12959 457-571): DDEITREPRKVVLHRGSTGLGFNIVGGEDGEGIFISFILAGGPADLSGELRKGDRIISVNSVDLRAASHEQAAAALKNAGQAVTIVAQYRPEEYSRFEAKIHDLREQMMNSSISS

[19] = biological target: Inadl_5, Q8NI35
Inadl_5, Q8NI35, sequence (Q8NI35 673-780): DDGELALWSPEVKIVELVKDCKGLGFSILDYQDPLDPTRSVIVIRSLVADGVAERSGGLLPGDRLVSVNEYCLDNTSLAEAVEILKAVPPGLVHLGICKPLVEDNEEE

[20] = biological target: T6, FRMPD1, Q5SYB0
T6 sequence (Q5SYB0 52-145, limits assumed, looked up): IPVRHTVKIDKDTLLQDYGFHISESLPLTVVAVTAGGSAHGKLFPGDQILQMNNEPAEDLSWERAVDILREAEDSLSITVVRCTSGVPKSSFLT

[21] = biological target: T7, SHANK1, Q9Y566
T7 sequence (Q9Y566 658-767, limits assumed, looked up): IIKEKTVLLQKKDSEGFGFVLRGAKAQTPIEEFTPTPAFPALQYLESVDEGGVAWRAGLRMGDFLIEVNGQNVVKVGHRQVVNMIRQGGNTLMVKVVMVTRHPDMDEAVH

[22] = biological target: T8, MPDZ_5, O75970
T8 sequence (O75970 695-796, limits assumed, looked up): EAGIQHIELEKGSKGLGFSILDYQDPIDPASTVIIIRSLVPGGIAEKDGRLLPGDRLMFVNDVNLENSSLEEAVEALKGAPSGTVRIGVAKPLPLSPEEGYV

[23] = biological target: T9, SNTB1, Q13884
T9 sequence (Q13884 107-205, limits assumed, looked up): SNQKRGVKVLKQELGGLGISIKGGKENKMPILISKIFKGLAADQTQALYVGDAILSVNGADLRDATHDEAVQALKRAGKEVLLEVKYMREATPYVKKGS

[24] = biological target: FRMPD2_1, Q68DX3
FRMPD2_1, Q68DX3, sequence (Q68DX3 770-861): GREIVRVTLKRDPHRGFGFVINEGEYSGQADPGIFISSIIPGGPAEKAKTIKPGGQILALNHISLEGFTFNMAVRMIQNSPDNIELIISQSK

[25] = biological target: FRMPD2_3, Q68DX3
FRMPD2_3, Q68DX3, sequence (Q68DX3 1073-1166): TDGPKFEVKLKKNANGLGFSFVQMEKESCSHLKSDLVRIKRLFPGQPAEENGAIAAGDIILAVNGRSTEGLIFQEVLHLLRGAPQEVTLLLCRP

[26] = biological target: T10, GRIP1_7, Q9Y3R0
T10 sequence (Q9Y3R0 999-1096, limits assumed, looked up): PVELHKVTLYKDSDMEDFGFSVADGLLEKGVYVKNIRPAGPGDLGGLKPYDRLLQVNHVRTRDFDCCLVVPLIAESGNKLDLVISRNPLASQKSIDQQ

[27] = biological target: T11, APBA1_2, Q02410
T11 sequence (Q02410 742-832, limits assumed, looked up): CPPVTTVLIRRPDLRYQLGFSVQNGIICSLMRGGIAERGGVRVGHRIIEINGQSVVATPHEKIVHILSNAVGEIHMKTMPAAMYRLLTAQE

[28] = plain residues with an end cap or a label only (N-terminal biotin on a linker: ahx)
[29] = plain residues with an end cap or a label only (N-terminal biotin on a linker: ado-ado)
[30] = plain residues with an end cap or a label only (N-terminal biotin on a linker: ttds)

SCRIB_2, Q14160, sequence (Q14160 857-960): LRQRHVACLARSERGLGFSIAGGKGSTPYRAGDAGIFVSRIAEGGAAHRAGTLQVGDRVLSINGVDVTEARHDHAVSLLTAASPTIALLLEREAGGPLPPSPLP
DLG4_3, P78352, sequence (P78352 306-403): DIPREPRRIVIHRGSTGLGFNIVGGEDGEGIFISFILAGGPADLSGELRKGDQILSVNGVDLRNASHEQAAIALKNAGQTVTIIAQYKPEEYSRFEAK
MAGI2_6, Q86UL8, sequence (Q86UL8 1141-1229): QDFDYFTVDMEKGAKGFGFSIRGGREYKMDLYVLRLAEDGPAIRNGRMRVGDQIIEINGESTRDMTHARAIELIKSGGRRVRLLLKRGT

B1: TMEM215, Q68D42 (peptide)
chain: QGRWDHETIV
pKd [1, 28]: 3.64 | pKd [2, 28]: 3.99 | pKd [3, 28]: 4.07 | pKd [4, 28]: 4.08 | pKd [5, 28]: 3.88 | pKd [6, 28]: 4 | pKd [7, 28]: 4.4 | pKd [8, 28]: 4.04 | pKd [9, 28]: below the threshold | pKd [10, 28]: below the threshold | pKd [11, 28]: 3.69 | pKd [12, 28]: 4.15 | pKd [13, 28]: 4.09 | pKd [14, 28]: 3.87 | pKd [15, 28]: 4.97 | pKd [16, 28]: below the threshold | pKd [17, 28]: below the threshold | pKd [18, 28]: 3.68 | pKd [19, 28]: 3.63 | pKd [20, 28]: below the threshold | pKd [21, 28]: 3.57 | pKd [22, 28]: below the threshold | pKd [23, 28]: 4.95 | pKd [24, 28]: below the threshold | pKd [25, 28]: 3.97 | pKd [26, 28]: 3.51 | pKd [27, 28]: 3.9

B2: CES2, O00748 (peptide)
chain: EEPEERHTEL
pKd [1, 29]: below the threshold | pKd [2, 29]: below the threshold | pKd [3, 29]: 4.27 | pKd [4, 29]: 3.79 | pKd [5, 29]: below the threshold | pKd [6, 29]: below the threshold | pKd [7, 29]: below the threshold | pKd [8, 29]: 3.56 | pKd [9, 29]: below the threshold | pKd [10, 29]: below the threshold | pKd [11, 29]: below the threshold | pKd [12, 29]: below the threshold | pKd [13, 29]: below the threshold | pKd [14, 29]: below the threshold | pKd [15, 29]: 4.72 | pKd [16, 29]: below the threshold | pKd [17, 29]: below the threshold | pKd [18, 29]: 3.52 | pKd [19, 29]: below the threshold | pKd [20, 29]: below the threshold | pKd [21, 29]: 4.55 | pKd [22, 29]: below the threshold | pKd [23, 29]: 4.92 | pKd [24, 29]: below the threshold | pKd [25, 29]: below the threshold | pKd [26, 29]: below the threshold | pKd [27, 29]: 3.5

B3: SLC16A1, P53985 (peptide)
chain: GGPKEEESPV
pKd [1, 30]: below the threshold | pKd [2, 30]: below the threshold | pKd [3, 30]: below the threshold | pKd [4, 30]: below the threshold | pKd [5, 30]: below the threshold | pKd [6, 30]: below the threshold | pKd [7, 30]: 4.01 | pKd [8, 30]: 3.64 | pKd [9, 30]: below the threshold | pKd [10, 30]: below the threshold | pKd [11, 30]: below the threshold | pKd [12, 30]: below the threshold | pKd [13, 30]: below the threshold | pKd [14, 30]: below the threshold | pKd [15, 30]: below the threshold | pKd [16, 30]: below the threshold | pKd [17, 30]: below the threshold | pKd [18, 30]: below the threshold | pKd [19, 30]: below the threshold | pKd [20, 30]: below the threshold | pKd [21, 30]: below the threshold | pKd [22, 30]: below the threshold | pKd [23, 30]: below the threshold | pKd [24, 30]: below the threshold | pKd [25, 30]: below the threshold | pKd [26, 30]: below the threshold | pKd [27, 30]: below the threshold

B4: HPV51-E6, P26554 (peptide)
chain: RTRQRNETQV
pKd [1, 30]: 4.75 | pKd [2, 30]: 3.72 | pKd [3, 30]: below the threshold | pKd [4, 30]: 4.39 | pKd [5, 30]: 3.84 | pKd [6, 30]: 4.4 | pKd [7, 30]: 3.41 | pKd [8, 30]: 3.91 | pKd [9, 30]: below the threshold | pKd [10, 30]: below the threshold | pKd [11, 30]: below the threshold | pKd [12, 30]: below the threshold | pKd [13, 30]: 3.69 | pKd [14, 30]: 4.91 | pKd [15, 30]: 3.88 | pKd [16, 30]: below the threshold | pKd [17, 30]: below the threshold | pKd [18, 30]: 4.54 | pKd [19, 30]: 3.4 | pKd [20, 30]: below the threshold | pKd [21, 30]: below the threshold | pKd [22, 30]: below the threshold | pKd [23, 30]: 4.09 | pKd [24, 30]: below the threshold | pKd [25, 30]: below the threshold | pKd [26, 30]: below the threshold | pKd [27, 30]: 3.56
